Reference: article PMC8385704 (2021)

Molecular target: His-tagged recombinant human ACE2 protein (residues 19-740), dimeric (human, UniProt Q9BYF1 19-740)
Test: BLI

Chain of His-tagged recombinant human ACE2 protein (residues 19-740), dimeric (Q9BYF1 19-740): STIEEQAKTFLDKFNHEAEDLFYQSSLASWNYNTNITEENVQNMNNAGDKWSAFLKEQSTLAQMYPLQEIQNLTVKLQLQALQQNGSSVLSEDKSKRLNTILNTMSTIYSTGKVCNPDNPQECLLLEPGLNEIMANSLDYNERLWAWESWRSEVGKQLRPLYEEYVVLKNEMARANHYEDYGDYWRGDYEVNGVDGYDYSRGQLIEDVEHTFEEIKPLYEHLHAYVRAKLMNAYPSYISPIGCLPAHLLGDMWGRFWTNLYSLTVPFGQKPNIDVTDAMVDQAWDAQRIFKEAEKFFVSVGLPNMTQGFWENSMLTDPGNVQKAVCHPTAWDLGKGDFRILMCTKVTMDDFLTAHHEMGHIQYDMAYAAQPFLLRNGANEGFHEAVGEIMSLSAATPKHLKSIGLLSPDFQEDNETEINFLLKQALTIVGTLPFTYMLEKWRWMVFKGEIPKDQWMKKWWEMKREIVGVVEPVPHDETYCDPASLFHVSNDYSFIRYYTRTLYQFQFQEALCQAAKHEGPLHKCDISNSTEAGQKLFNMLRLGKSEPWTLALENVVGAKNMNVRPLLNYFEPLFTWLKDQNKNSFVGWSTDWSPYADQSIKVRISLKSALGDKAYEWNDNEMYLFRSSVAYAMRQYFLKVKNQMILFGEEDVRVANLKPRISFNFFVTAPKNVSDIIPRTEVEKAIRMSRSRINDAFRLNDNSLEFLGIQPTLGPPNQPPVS

B1: monoclonal antibody 3E8 (antibody, V domains shown)
VH: EVQLEESGAELVRPGASVKISCKAFGYTFTNHHINWMKQRPGQGLDWIGYVNPYNDYTKYSQNFKGKATLSVDRSSSTAYMELSSLTSEDSAVYYCARWRDYDRDWYFDVWGAGTTVIVSS
VL: DIVMTQSPATLSVTPGDRVSLSCRASQSIRDYLYWYQQKSHESPRLLIKYASQSISGIPSRFSGSGSGSDFTLSINSVEPEDVGVYYCQNGHSFPYTFGGGTKLEIK
Q: For B1, which koff is on record?
A: The koff was 0.000278 s⁻¹.
